According to patent US20200079833A1 (AstraZeneca / MedImmune, published 2020):
Starred links: 1 amine or outer side, 2 acyl side, 3 side chain; linkers in the order of their positions; H or OH if unused. Non-standard residues stand in square brackets, D forms with d. Groups on a side chain read outwards from the residue. Primed or numbered codes have the meaning given here. No end group written: not given here. *: point of attachment. γGlu = O=C(O)[C@H](CCC(=O)[*:2])N[*:1]; αMeF = C[C@](N)(Cc1ccccc1)C(=O)O; αMeK = C[C@](N)(CCCCN)C(=O)O; Lauroyl = CCCCCCCCCCCC(=O)*; αMeS = C[C@](N)(CO)C(=O)O; PEG2′ = not defined here; Aib = CC(C)(N)C(=O)O

T1: glucose-dependent insulinotropic peptide (gastric inhibitory polypeptide) receptor (GIPR), primary cAMP assay … (human, UniProt P48546 22-466)
T1 sequence (looked up): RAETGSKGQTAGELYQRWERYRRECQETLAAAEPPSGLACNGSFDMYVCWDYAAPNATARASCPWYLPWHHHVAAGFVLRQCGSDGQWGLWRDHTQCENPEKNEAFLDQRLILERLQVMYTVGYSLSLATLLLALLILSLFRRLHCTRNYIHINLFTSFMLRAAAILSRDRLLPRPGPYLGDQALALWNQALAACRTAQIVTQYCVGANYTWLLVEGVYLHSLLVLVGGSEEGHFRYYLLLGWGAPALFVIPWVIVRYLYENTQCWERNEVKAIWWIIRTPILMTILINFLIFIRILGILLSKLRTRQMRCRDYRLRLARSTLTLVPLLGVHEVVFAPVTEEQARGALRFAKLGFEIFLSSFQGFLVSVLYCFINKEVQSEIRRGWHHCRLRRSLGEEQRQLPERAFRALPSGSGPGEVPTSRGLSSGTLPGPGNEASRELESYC

T2: GLP-1R in the INS1e assay (UniProt P32301 22-463, limits assumed)
T2 sequence (looked up): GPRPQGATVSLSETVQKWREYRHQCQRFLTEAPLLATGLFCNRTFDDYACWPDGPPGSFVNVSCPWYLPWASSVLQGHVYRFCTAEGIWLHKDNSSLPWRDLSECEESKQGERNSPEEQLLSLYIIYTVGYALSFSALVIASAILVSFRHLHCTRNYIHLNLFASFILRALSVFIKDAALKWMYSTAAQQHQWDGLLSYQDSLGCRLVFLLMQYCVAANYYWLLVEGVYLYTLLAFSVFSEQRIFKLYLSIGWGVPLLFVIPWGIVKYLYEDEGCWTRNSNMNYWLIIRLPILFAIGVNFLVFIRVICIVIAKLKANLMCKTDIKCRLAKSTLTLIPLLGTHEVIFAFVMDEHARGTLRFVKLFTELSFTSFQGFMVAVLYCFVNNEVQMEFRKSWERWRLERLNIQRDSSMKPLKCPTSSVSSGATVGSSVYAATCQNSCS


How the values were obtained:
Test in all cases: cell-based or functional assay
[1] = biological target: GLP-1 receptor (GLP-1R), primary cAMP assay cell line (human, UniProt P43220 24-463)
[2] = biological target: glucagon receptor (GCGR), primary cAMP assay cell line (human, UniProt P47871 26-477)
[3] = biological target: T1, glucose-dependent insulinotropic …
[4] = biological target: T2, GLP-1R in the INS1e assay

glucagon receptor (GCGR), primary cAMP assay cell line, sequence (P47871 26-477): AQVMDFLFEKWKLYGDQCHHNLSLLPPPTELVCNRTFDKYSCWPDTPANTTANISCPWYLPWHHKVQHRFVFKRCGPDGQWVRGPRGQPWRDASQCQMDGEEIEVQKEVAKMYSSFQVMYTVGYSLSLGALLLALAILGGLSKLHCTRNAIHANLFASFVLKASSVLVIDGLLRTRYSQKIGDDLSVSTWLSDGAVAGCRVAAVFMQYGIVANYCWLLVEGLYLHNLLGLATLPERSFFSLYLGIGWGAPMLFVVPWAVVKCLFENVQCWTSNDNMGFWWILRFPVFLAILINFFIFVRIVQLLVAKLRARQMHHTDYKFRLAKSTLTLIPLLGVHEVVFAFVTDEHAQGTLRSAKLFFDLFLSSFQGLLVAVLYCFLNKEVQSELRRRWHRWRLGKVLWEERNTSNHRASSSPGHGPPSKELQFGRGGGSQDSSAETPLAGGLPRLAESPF

| Binder | cAMP Primary assay EC50, Mean pM GLP-1R [1] [pM] | cAMP Primary assay EC50, n1 [1] [nM] | cAMP Primary assay EC50, n2 [1] [nM] | cAMP Primary assay EC50, n1 [2] [nM] | cAMP Primary assay EC50, n2 [2] [nM] | cAMP Primary assay EC50, n1 [3] [nM] | cAMP Primary assay EC50, n2 [3] [nM] | cAMP INS1e assay EC50, Mean pM GLP-1R [4] [pM] | cAMP INS1e assay EC50, n1 [4] [nM] | cAMP INS1e assay EC50, n2 [4] [nM] |
| --- | --- | --- | --- | --- | --- | --- | --- | --- | --- | --- |
| H[Aib]EGS[αMeF]TSDV[αMeS]SK([PEG2′-PEG2′-γGlu-Lauroyl])LEGEAA[αMeK]K([PEG2′-PEG2′-γGlu-Lauroyl])FIAFK([PEG2′-PEG2′-γGlu-Lauroyl])VEGG-NH2 [SEQ ID NO: 482] | 36.3 | 0.0283 | 0.0442 | 20 | 20 | 20 | 20 | 5860 | 8.57 | 3.15 |
| H[Aib]EGS[αMeF]TSDVSK([PEG2′-PEG2′-γGlu-Lauroyl])YLEGEAA[αMeK]K([PEG2′-PEG2′-γGlu-Lauroyl])FIAK([PEG2′-PEG2′-γGlu-Lauroyl])VVEGG-NH2 [SEQ ID NO: 462] | 47 | 0.0376 | 0.0564 | 20 | 20 | 20 | 20 | 4560 | 5.4 | 3.73 |
| H[Aib]EGS[αMeF]TSDV[αMeS]SYK([PEG2′-PEG2′-γGlu-Lauroyl])EGEK([PEG2′-PEG2′-γGlu-Lauroyl])A[αMeK]EFIAK([PEG2′-PEG2′-γGlu-Lauroyl])VVEGG-NH2 [SEQ ID NO: 469] | 45.4 | 0.0418 | 0.049 | 19.8 | 19.8 | 19.8 | 19.8 | 4900 | 6.9 | 2.89 |
| H[Aib]EGS[αMeF]TSDV[αMeS]SK([PEG2′-PEG2′-γGlu-Lauroyl])LEGK([PEG2′-PEG2′-γGlu-Lauroyl])AA[αMeK]EFIAK([PEG2′-PEG2′-γGlu-Lauroyl])VVEGG-NH2 [SEQ ID NO: 464] | 30.3 | 0.0254 | 0.0351 | 20.2 | 20.2 | 20.2 | 20.2 | 4020 | 4.46 | 3.57 |
| H[Aib]EGS[αMeF]TSDV[αMeS]SK([PEG2′-PEG2′-γGlu-Lauroyl])LEGK([PEG2′-PEG2′-γGlu-Lauroyl])AA[αMeK]EFIAFK([PEG2′-PEG2′-γGlu-Lauroyl])VEGG-NH2 [SEQ ID NO: 480] | 57.5 | 0.056 | 0.0589 | 20 | 20 | 20 | 20 | 6530 | 9.37 | 3.69 |
| H[Aib]EGS[αMeF]TSDV[αMeS]SYK([PEG2′-PEG2′-γGlu-Lauroyl])EK([PEG2′-PEG2′-γGlu-Lauroyl])EAA[αMeK]EFIAK([PEG2′-PEG2′-γGlu-Lauroyl])VVEGG-NH2 [SEQ ID NO: 467] | 55.4 | 0.0493 | 0.0615 | 19.8 | 19.8 | 19.8 | 19.8 | 8920 | 9.92 | 7.91 |
| H[Aib]EGS[αMeF]TSDV[αMeS]SYK([PEG2′-PEG2′-γGlu-Lauroyl])EGEAA[αMeK]K([PEG2′-PEG2′-γGlu-Lauroyl])FIAK([PEG2′-PEG2′-γGlu-Lauroyl])VVEGG-NH2 [SEQ ID NO: 470] | 31.3 | 0.026 | 0.0365 | 20 | 20 | 20 | 20 | 3660 | 3.84 | 3.48 |
| H[Aib]EGS[αMeF]TSDV[αMeS]SK([PEG2′-PEG2′-γGlu-Lauroyl])LEGEAA[αMeK]K([PEG2′-PEG2′-γGlu-Lauroyl])FIAK([PEG2′-PEG2′-γGlu-Lauroyl])VVEGG-NH2 [SEQ ID NO: 466] | 22.4 | 0.0172 | 0.0275 | 20.2 | 20.2 | 20.2 | 20.2 | 3200 | 3.86 | 2.55 |
